The text below walks through data of patent US20180305423A1 (OKLAHOMA MEDICAL RESEARCH FOUNDATION, published 2018).

Experiment [1] has as its target T1, IP3R1 (IP3 receptor 1, ITPR1) (mouse, UniProt P11881 1-2749, limits assumed).
T1 construct: also called IP3 Receptors
Kind of experiment: IP with epsin 1 antibody from oxLDL-treated MAEC, gel for mass spectrometry [panel A].

For experiment [2], the target named is T2, IRS1 (insulin receptor substrate) (UniProt P35569 1-1233).
T2 sequence (looked up): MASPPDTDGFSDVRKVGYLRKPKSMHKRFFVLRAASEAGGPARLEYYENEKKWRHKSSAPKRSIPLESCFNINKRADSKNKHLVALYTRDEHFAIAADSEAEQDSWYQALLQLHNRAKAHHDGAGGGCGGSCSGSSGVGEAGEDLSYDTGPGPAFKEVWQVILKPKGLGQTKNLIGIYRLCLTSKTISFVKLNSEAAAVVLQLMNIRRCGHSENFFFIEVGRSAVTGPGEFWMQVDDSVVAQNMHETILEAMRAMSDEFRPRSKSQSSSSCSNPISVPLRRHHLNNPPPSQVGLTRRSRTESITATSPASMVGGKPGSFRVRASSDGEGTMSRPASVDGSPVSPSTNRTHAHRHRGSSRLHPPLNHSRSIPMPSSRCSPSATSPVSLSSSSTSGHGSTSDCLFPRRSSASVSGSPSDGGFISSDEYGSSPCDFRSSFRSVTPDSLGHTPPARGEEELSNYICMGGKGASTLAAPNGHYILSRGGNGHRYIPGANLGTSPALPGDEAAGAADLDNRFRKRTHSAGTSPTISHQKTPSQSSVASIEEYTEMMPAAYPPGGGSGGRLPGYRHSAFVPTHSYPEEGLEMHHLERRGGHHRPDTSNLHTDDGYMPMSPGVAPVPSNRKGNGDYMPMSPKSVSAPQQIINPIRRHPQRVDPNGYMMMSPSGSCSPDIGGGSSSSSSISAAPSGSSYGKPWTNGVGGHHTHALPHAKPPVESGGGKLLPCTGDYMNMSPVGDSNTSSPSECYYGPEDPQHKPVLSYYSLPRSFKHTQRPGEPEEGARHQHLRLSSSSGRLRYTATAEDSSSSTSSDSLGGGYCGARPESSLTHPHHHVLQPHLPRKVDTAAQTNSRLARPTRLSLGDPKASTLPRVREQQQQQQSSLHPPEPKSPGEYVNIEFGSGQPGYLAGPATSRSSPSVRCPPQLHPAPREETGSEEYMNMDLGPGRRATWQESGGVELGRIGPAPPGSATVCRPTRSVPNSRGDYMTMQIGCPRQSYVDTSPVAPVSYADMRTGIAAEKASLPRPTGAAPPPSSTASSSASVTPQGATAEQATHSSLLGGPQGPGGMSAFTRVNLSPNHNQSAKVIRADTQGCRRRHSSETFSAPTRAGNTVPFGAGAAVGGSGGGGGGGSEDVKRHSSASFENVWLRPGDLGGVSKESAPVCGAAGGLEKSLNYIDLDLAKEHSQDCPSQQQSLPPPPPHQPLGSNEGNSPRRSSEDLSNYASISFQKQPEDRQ
The experiment in a line: co-IP with anti-epsin 1 from 3T3-L1 pre-adipocytes with or without insulin, blot for IRS1.

Experiment [3] concerns the target T3, VEGFR2 (endogenous, HUVEC^αvβ3 cells) (human, UniProt P35968 20-1356).
T3 construct: whole, on cells
Kind of experiment: co-IP with anti-VEGFR2 from HUVECαvβ3 cells, blot for Epn1, with quantification [panel B].

T3 sequence (P35968 20-1356): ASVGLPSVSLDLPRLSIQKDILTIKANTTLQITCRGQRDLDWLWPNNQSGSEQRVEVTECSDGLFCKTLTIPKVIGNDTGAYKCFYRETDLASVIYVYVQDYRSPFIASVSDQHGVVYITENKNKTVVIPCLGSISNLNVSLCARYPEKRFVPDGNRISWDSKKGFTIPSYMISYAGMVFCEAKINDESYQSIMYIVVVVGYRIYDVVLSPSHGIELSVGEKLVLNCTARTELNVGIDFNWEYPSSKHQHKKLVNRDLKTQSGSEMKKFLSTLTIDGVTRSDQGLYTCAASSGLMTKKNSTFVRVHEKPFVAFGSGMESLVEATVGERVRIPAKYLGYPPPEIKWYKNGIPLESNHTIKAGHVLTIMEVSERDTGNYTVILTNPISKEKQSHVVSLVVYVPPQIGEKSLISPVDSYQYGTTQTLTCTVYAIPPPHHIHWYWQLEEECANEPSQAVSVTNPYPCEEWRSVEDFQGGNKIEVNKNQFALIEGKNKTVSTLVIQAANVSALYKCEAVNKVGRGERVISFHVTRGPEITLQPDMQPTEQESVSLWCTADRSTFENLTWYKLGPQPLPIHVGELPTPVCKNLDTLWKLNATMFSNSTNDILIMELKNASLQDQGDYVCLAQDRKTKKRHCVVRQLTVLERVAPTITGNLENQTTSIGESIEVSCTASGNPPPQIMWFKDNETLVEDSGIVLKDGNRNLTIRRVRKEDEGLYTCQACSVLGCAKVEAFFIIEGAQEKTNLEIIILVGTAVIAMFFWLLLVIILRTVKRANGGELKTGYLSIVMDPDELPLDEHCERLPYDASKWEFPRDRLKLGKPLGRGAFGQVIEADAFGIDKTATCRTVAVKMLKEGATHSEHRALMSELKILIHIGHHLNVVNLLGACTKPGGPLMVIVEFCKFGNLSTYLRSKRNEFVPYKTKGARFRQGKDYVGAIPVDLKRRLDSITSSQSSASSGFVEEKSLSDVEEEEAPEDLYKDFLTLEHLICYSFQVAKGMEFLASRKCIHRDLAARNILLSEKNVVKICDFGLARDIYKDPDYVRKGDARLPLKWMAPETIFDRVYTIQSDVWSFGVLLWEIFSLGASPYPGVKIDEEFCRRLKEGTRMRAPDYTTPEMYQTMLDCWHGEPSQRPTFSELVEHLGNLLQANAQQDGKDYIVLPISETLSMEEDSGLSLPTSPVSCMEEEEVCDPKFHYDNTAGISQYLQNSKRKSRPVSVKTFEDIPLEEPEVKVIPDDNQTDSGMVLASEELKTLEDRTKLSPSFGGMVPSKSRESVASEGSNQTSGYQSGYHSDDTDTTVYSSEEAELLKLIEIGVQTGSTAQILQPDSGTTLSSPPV
T1 sequence (P11881 whole entry): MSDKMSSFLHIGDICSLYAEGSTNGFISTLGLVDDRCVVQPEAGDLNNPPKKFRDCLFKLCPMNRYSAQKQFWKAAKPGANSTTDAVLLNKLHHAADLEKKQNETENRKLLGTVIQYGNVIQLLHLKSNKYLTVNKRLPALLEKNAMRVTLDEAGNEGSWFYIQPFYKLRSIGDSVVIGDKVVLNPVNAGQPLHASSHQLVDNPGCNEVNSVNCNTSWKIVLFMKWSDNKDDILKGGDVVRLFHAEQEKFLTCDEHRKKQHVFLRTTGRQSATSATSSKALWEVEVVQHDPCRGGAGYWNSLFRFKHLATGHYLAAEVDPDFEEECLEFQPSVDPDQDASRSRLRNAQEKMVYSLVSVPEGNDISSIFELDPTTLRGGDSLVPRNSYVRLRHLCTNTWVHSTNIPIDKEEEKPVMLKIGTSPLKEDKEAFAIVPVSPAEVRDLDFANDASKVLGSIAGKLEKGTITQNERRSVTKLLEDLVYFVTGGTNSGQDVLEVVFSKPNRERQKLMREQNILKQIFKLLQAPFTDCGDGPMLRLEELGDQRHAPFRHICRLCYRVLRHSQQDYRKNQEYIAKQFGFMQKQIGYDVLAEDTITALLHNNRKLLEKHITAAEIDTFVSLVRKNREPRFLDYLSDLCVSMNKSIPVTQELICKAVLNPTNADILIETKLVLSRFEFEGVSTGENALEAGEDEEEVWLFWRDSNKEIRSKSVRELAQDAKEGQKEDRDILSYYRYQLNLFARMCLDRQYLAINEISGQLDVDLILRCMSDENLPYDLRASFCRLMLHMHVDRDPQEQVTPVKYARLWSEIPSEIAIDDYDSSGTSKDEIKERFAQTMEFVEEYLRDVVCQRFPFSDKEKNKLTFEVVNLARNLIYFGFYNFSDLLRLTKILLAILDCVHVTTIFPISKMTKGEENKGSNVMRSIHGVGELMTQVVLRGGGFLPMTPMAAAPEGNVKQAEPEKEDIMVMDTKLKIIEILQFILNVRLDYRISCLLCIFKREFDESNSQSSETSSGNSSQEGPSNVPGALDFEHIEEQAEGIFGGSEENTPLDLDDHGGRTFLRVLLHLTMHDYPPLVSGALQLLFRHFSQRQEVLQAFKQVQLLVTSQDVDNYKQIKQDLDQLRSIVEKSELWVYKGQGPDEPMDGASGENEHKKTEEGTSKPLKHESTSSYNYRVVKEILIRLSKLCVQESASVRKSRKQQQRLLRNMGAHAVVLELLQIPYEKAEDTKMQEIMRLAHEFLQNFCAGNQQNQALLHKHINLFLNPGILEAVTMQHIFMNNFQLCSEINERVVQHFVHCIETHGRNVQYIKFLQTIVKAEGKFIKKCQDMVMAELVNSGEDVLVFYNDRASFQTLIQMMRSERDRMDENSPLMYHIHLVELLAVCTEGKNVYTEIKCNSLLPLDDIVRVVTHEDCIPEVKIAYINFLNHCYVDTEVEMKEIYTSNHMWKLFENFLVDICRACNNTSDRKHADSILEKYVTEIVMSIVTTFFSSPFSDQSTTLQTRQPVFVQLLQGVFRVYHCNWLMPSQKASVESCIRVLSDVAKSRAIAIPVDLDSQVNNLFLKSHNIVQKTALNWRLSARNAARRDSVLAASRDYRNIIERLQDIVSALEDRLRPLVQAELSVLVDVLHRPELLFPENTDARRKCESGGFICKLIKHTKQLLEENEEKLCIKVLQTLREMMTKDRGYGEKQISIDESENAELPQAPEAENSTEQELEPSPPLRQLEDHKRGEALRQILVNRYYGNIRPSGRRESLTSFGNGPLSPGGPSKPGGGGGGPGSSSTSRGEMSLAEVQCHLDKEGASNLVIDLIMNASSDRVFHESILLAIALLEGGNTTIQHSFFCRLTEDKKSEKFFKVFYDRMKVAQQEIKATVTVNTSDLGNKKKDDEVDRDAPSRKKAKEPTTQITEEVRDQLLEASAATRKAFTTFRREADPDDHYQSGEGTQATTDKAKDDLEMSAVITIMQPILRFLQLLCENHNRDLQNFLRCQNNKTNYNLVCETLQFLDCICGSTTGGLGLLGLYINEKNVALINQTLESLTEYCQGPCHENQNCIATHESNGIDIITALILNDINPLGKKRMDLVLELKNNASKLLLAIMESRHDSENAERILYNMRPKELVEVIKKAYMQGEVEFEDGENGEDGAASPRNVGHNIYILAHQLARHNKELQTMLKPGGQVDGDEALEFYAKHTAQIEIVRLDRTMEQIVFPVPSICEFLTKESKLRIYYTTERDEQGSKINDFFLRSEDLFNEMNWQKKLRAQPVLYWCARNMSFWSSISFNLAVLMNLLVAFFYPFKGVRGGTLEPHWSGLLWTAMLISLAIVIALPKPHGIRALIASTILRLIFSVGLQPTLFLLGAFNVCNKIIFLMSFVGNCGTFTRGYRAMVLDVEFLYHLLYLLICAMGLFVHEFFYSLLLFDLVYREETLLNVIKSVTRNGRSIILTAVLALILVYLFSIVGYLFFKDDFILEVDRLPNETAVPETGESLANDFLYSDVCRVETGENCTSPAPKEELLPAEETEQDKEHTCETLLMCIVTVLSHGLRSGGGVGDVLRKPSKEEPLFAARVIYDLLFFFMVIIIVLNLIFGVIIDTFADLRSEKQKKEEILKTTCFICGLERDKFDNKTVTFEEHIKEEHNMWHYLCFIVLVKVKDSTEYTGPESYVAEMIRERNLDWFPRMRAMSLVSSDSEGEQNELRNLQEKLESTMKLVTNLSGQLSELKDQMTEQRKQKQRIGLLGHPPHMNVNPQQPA

B1: Epsin 1 (endogenous, MAEC and 3T3-L1 cells) (other, mouse, UniProt Q80VP1 1-575, looked up)
chain: MSTSSLRRQMKNIVHNYSEAEIKVREATSNDPWGPSSSLMSEIADLTYNVVAFSEIMSMIWKRLNDHGKNWRHVYKAMTLMEYLIKTGSERVSQQCKENMYAVQTLKDFQYVDRDGKDQGVNVREKAKQLVALLRDEDRLREERAHALKTKEKLAQTATASSAAVGSGPPPEAEQAWPQSSGEEELQLQLALAMSKEEADQPPSCGPEDDVQLQLALSLSREEHDKEERIRRGDDLRLQMAIEESKRETGGKEESSLMDLADVFTTPAPPQASDPWGGPASVPTAVPVAAAASDPWGGPAVPPAADPWGGAAPTPASGDPWRPAAPTGPSVDPWGGTPAPAAGEGPTPDPWGSSDGGAPVSGPPSSDPWAPAPAFSDPWGGSPAKPSSNGTAVGGFDTEPDEFSDFDRLRTALPTSGSSTGELELLAGEVPARSPGAFDMSGVGGSLAESVGSPPPAATPTPTPPTRKTPESFLGPNAALVDLDSLVSRPGPTPPGSKASNPFLPSGAPPTGPSVTNPFQPAPPATLTLNQLRLSPVPPVPGAPPTYISPLGGGPGLPPMMPPGPPAPNTNPFLL
notes: also called epsins
B1: the binding result in experiment [1] and in experiment [2] was “binds” each time.

B2: Epsin 1 (endogenous, HUVEC^αvβ3 cells) (other, human, UniProt Q9Y6I3 1-576, looked up)
chain: MSTSSLRRQMKNIVHNYSEAEIKVREATSNDPWGPSSSLMSEIADLTYNVVAFSEIMSMIWKRLNDHGKNWRHVYKAMTLMEYLIKTGSERVSQQCKENMYAVQTLKDFQYVDRDGKDQGVNVREKAKQLVALLRDEDRLREERAHALKTKEKLAQTATASSAAVGSGPPPEAEQAWPQSSGEEELQLQLALAMSKEEADQPPSCGPEDDAQLQLALSLSREEHDKEERIRRGDDLRLQMAIEESKRETGGKEESSLMDLADVFTAPAPAPTTDPWGGPAPMAAAVPTAAPTSDPWGGPPVPPAADPWGGPAPTPASGDPWRPAAPAGPSVDPWGGTPAPAAGEGPTPDPWGSSDGGVPVSGPSASDPWTPAPAFSDPWGGSPAKPSTNGTTAAGGFDTEPDEFSDFDRLRTALPTSGSSAGELELLAGEVPARSPGAFDMSGVRGSLAEAVGSPPPAATPTPTPPTRKTPESFLGPNAALVDLDSLVSRPGPTPPGAKASNPFLPGGGPATGPSVTNPFQPAPPATLTLNQLRLSPVPPVPGAPPTYISPLGGGPGLPPMMPPGPPAPNTNPFLL
notes: also called endogenous epsin 1
As for B2, the binding result in experiment [3] is given as “binds”.
